# Source: patent US20250347705, “Epitope-Specific hCG Binding Aptamers and Applications Thereof” (Rhodes University, published 2025)
# Columns and labels:
# [1] = target: bovine serum albumin (BSA) (UniProt P02769 P02769:25-607); assay: ELONA; BSA control beads, not different from No DNA
# Procedure: Protein-modified magnetic beads were prepared by functionalising 1 mg of epoxy beads with either 10 μg of hCG or negative control proteins BSA or HSA (as in Example 2). Once functionalised, aliquots of the beads corresponding to 72 μg beads were added to individual wells of a 96-well plate which were pre-blocked with 3% w/v milk powder (in HMCKN-T buffer composed of 20 mM HEPES, 2 mM MgCl₂, 2 mM CaCl₂, 2 mM KCl, 150 mM NaCl, pH 7.4, supplemented with 0.002% v/v TWEEN 20.) Bead samples were prepared in triplicate.
# A variation of the qPCR assay (FIG. 9) was employed using biotinylated aptamer sequences, creating a colourimetric ELONA (FIG. 10). During the colourimetric ELONA study, 5′ biotinylated full-length aptamer sequences were exposed to protein-modified beads—either hCG target or Bovine Serum Albumin (the bovine equivalent of HSA). After rinsing unbound aptamers from the beads, the colorimetric signal, proportional to the amount of biotinylated aptamer present, was generated by the addition of HRP-conjugated streptavidin and the subsequent HRP-catalysed oxidation of TMB.
# [2] = target: human chorionic gonadotropin (hCG), alpha/beta heterodimer (Homo sapiens, UniProt P01215;P0DN86 P01215:25-116,P0DN86:21-165); assay: EMSA; very slight band decrease; ELONA signal similar to No DNA; details: tags: Abcam ab126652, isolated from human urine, >=50% pure; label: 5' biotin
# Sequence of human chorionic gonadotropin (hCG), alpha/beta heterodimer (P01215 25-116, chain 1 of 2, other chains not shown): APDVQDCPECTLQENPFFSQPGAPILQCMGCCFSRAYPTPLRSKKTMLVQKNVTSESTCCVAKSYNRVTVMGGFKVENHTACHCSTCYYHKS
# Sequence of bovine serum albumin (BSA) (P02769 25-607, one chain of several): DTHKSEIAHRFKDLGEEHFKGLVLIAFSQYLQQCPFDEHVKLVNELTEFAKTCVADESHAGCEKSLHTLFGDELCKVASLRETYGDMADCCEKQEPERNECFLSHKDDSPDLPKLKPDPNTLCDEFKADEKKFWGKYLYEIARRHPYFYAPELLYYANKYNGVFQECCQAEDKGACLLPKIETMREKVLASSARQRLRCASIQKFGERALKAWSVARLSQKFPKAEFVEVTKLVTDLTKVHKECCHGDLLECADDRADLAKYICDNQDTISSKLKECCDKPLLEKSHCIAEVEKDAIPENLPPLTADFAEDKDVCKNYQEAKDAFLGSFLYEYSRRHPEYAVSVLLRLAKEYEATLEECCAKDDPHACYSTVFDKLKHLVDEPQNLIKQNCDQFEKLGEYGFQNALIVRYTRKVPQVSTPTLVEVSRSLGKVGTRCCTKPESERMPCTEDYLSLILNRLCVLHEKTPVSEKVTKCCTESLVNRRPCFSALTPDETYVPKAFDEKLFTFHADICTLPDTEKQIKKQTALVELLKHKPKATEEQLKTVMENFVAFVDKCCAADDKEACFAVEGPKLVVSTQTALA
Binder,binding result ([1]; label: 5' biotin (3' biotin variant also used)),binding result ([1]; label: 5' biotin),binding result [2]
ACCTGCTGACATTGGGTGGGTCCTGAACCATTTTTAATCA (ssDNA) [R4_64 truncated],no binding,,
CAACTATTTCAGTATTCTAGAAAGGTCAAACCTTAGGAGC (ssDNA) [R6_5 truncated],,no binding,
CAAGGATCGGCTCAACTTAATATTGGAGGGATAGTGTTGG (ssDNA) [R5_4 truncated],,no binding,
TGGACGAGGTATCTCGTATCATTGGCACCTAAAACTCCGT (ssDNA) [R4_1 truncated (amplification artefact control)],,no binding,no binding
